Data as given in IntAct's records for PubMed 31254514.

B1: Beta-crystallin A4 (Homo sapiens), P53673 (parent)
chain: MTLQCTKSAGPWKMVVWDEDGFQGRRHEFTAECPSVLELGFETVRSLKVLSGAWVGFEHAGFQGQQYILERGEYPSWDAWGGNTAYPAERLTSFRPAACANHRDSRLTIFEQENFLGKKGELSDDYPSLQAMGWEGNEVGSFHVHSGAWVCSQFPGYRGFQYVLECDHHSGDYKHFREWGSHAPTFQVQSIRRIQQ
partner: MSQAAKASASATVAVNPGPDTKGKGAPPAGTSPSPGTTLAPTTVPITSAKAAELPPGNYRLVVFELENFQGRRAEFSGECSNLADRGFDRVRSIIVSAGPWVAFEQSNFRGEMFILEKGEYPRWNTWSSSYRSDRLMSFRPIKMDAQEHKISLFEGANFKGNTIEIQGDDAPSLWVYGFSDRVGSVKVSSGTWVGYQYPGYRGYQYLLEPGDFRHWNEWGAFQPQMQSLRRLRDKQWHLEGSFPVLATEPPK
B2: Beta-crystallin A4 (Homo sapiens), P53673 (parent)
chain: B1 chain
partner: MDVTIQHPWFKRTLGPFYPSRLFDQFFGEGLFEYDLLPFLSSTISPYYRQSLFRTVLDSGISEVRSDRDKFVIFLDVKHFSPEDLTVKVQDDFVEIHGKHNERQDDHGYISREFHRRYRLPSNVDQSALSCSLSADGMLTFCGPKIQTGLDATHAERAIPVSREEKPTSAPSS

Variants of: B1
Settings: with crbb1_human CRYBB1, P53674

effect of a mutation on the interaction	Variant
disrupting interaction strength	MTLQCTKSAGPWKMVVWDEDGFQGRRHEFTAECPSVLELGFETVRSLKVLSGAWVGFEHAGFQWQQYILERGEYPSWDAWGGNTAYPAERLTSFRPAACANHRDSRLTIFEQENFLGKKGELSDDYPSLQAMGWEGNEVGSFHVHSGAWVCSQFPGYRGFQYVLECDHHSGDYKHFREWGSHAPTFQVQSIRRIQQ [G64W]

Variants of: B2
Settings: with cryaa_human CRYAA

effect of a mutation on the interaction	Variant
increasing interaction strength	MTLQCTKSAGPWKMVVWDEDGFQGRRHEFTAECPSVLELGFETVRSLKVLSGAWVGFEHAGFQWQQYILERGEYPSWDAWGGNTAYPAERLTSFRPAACANHRDSRLTIFEQENFLGKKGELSDDYPSLQAMGWEGNEVGSFHVHSGAWVCSQFPGYRGFQYVLECDHHSGDYKHFREWGSHAPTFQVQSIRRIQQ [G64W]
